Laboratory results as given in patent US6846803B1, “Antagonists specific for the corticotropin-releasing factor receptor type 2 (CRFR2)” (priority 1998, dated 2005).
Residues, ends and D or L forms follow the SMILES beside them. No end group written: not given here.

How the values were obtained:
rCRFR1 [1] = target: T1, rCRFR1 (Rattus norvegicus, UniProt P35353); assay: cAMP stimulation / inhibition of oCRF-stimulated cAMP production in HEK-rCRFR1 cells; type: cell-based
T1 construct: expressed in transfected cells; host or cells: HEK 293 cells, stably transfected (HEK-rCRFR1)
T1 sequence (P35353 24-415): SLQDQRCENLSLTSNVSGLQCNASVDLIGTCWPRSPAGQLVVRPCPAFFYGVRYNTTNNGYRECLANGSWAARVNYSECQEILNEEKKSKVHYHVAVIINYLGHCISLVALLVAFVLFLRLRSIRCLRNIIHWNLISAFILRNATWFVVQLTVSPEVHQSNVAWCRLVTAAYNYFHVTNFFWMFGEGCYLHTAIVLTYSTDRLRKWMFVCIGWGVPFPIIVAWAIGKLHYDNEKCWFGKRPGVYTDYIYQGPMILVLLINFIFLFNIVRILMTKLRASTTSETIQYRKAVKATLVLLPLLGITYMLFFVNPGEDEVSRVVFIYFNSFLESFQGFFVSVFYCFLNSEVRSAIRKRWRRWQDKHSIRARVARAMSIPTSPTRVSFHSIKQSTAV
Description: (§1) HEK-rCRFR1 cells or HEK-mCRFR2β cells were incubated with different CRF agonists in the presence or absence of 1 μM or 10 nM antagonist, or CRF antagonist (c=1 μM) alone. After removal of the medium, cells were lyzed with aqueous 6% trichloroacetic acid (5 min, 100° C.) (Rühmann, A., A. K. E. Köpke, F. M. Dautzenberg, and J. Spiess, Proc. Natl. Acad. Sci. USA 93: 10609-10613, 1996). The cell lysates were stored at −70° C. until assayed with a RIA kit (Amersham, Little Chalfont). […] Statistical significance was determined across groups with ANOVA, and significant differences between groups were determined by post hoc comparison using the Dunn test.
(§2) Intrinsic activities were measured at peptide concentrations generating maximal formation of cAMP in HEK-rCRFR1 or HEK-mCRFR2β cells.

CRFR2α = target: T2, CRFR2α (Mus musculus, UniProt Q60748); settings: BALB/c mice; brain area exclusively expressing CRF2α-mRNA; cited from earlier work
T2 construct: from tissue; host or cells: lateral septum of BALB/c mice, in vivo

mCRFR2β [2] = target: T3, mCRFR2β (Mus musculus, UniProt Q60748); assay: cAMP stimulation / inhibition of Svg-stimulated cAMP production in HEK-mCRFR2β cells; type: cell-based
T3 construct: expressed in transfected cells; host or cells: HEK 293 cells, stably transfected (HEK-mCRFR2β); membrane homogenates
Description: as §1, §2
Target sequence in this assay (Q60748 1-431 isoform Q60748-2): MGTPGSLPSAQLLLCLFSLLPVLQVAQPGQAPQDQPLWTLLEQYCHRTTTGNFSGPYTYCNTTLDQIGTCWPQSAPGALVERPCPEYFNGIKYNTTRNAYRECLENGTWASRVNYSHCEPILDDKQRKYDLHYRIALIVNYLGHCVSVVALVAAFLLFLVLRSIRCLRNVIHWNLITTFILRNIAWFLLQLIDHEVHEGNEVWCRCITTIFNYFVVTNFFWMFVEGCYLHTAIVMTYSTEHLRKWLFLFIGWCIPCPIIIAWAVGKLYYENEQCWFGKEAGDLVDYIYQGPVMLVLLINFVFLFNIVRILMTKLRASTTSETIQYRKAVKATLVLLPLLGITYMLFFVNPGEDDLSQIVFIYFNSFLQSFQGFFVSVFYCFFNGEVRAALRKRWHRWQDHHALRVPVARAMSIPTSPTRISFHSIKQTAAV

mCRFR2β [3] = target: T3, mCRFR2β; assay: Displacement of [^125I-Tyr^0]Svg from membranes of HEK-mCRFR2β cells; type: binding
Description: (§3) Binding assays were performed in 96-well MultiScreen plates (Millipore, Eschborn, Germany) with GF/B filters (pore size 1.0 μm). […] After incubation (60 min, 23° C.), membrane suspension was aspirated through the plate, followed by two washes with assay buffer (0.2 ml, 23°). Radioactivity of the punched filters was measured with a 1470 WIZARD automatic gamma counter (Berthold, Hannover). […] Statistical analysis was performed with ANOVA, and significant differences between groups were determined by post hoc comparison using the Dunn test.
(§4) Membrane homogenates of human embryonic kidney (HEK) 293 cells stably transfected with cDNA coding for rat CRF receptor, type 1 (rCRFR1) or mouse CRF receptor, type 2β (mCRFR2β) were prepared according to standard protocols (see, e.g., Sambrook et al., Molecular Cloning: A Laboratory Manual, 2nd. Edition, Cold Spring Habor Laboratory Press, Cold Spring Habor, N.Y., 1989; Ausubel et al., Current Protocols in Molecular Biology, Green Publishing Associates and Wiley Interscience, NY, 1989).

rCRFR1 [4] = target: T1, rCRFR1; assay: Displacement of [^125I-Tyr^0]oCRF from membranes of HEK-rCRFR1 cells; type: binding
Description: as §3, §4

[5] = target: T4, rat CRF receptor, type 1 (rCRFR1) (rat, UniProt P35353 24-415); assay: cell-based or functional assay
T4 sequence (looked up): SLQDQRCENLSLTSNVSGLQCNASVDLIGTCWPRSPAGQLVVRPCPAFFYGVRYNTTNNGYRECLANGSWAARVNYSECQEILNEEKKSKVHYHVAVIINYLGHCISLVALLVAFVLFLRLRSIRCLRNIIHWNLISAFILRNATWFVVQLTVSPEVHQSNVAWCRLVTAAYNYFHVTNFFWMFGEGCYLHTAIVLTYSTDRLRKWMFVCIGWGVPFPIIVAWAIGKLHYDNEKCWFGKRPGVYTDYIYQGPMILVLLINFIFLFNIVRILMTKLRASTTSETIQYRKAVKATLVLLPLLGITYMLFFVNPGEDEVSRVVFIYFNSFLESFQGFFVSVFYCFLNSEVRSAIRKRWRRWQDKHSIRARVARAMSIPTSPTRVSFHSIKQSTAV

[6] = target: T4, rat CRF receptor, type 1 (rCRFR1); assay: radioligand displacement; this end of the range tied by the Kd ratio of Table 3 (220.9/153.6)
Description: as §3

[7] = target: T4, rat CRF receptor, type 1 (rCRFR1); assay: cell-based or functional assay; remark: listed apart in the source
[8] = target: mouse CRF receptor, type 2β (mCRFR2β) (mouse) (UniProt Q60748); assay: Kd(rCRFR1)/Kd(mCRFR2β) of the peptide normalised to that of astressin; radioligand displacement
[9] = target: T4, rat CRF receptor, type 1 (rCRFR1); assay: displacement of [125I-Tyr0]oCRF from HEK-rCRFR1 membranes
Description: as §3

[10] = target: mouse CRF receptor, type 2β (mCRFR2β) (mouse) (UniProt Q60748); assay: radioligand displacement; this end of the range tied by the Kd ratio of Table 3 (20.8/3.5)
[11] = target: T4, rat CRF receptor, type 1 (rCRFR1); assay: cell-based or functional assay; remark: listed apart in the source
[12] = target: T4, rat CRF receptor, type 1 (rCRFR1); assay: cell-based or functional assay; remark: listed apart in the source
[13] = target: mouse CRF receptor, type 2β (mCRFR2β) (mouse) (UniProt Q60748); assay: radioligand binding to membranes of HEK-mCRFR2β cells, displaced by Svg

T2 sequence (Q60748 whole entry): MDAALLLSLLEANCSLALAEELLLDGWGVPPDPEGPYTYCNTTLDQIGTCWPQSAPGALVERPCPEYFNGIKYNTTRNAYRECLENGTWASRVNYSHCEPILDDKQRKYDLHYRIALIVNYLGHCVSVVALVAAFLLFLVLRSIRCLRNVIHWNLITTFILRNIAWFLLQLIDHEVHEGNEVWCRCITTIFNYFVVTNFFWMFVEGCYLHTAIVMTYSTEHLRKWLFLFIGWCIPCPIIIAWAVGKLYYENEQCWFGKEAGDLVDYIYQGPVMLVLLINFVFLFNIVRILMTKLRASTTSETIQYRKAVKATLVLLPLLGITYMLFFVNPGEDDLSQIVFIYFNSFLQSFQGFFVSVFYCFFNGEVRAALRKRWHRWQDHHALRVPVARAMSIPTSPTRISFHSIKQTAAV

CC[C@H](C)[C@H](NC(=O)[C@@H](NC(=O)[C@H](CC(=O)O)NC(=O)[C@H](CC(C)C)NC(=O)[C@H](CC(C)C)NC(=O)[C@H](CC(C)C)NC(=O)[C@H](CCCNC(=N)N)NC(=O)[C@H](CC(N)=O)NC(=O)[C@H](CC(N)=O)NC(=O)[C@H](C)NC(=O)[C@H](C)NC(=O)[C@H](CCC(N)=O)NC(=O)[C@H](CCC(N)=O)NC(=O)[C@H](CCCCN)NC(=O)[C@H](CCC(=O)O)NC(=O)[C@H](CCCCN)NC(=O)[C@H](CCC(=O)O)NC(=O)[C@H](CCC(N)=O)NC(=O)[C@H](CCCCN)NC(=O)[C@H](CCC(=O)O)NC(=O)[C@@H](NC(=O)[C@H](CCC(=O)O)NC(=O)[C@@H](NC(=O)[C@H](CCSC)NC(=O)[C@H](CCCCN)NC(=O)[C@H](CCCNC(=N)N)NC(=O)[C@H](CC(C)C)NC(=O)[C@H](CC(C)C)NC(=O)[C@H](Cc1c[nH]cn1)NC(=O)[C@H](N)Cc1ccccc1)[C@@H](C)CC)[C@@H](C)CC)[C@@H](C)O)C(N)=O [[DPhe^11, His^12]Svg(11-40)]
inhibitory potency towards rCRFR1 (rCRFR1 [1]; HEK-rCRFR1 cells, difference significant): 15 % of the potency of astressin | CRF-mediated behavioral effects in the lateral septum (CRFR2α): inhibited

CC[C@H](C)[C@H](NC(=O)[C@@H](NC(=O)[C@H](CC(=O)O)NC(=O)[C@H](CC(C)C)NC(=O)[C@H](CC(C)C)NC(=O)[C@H](CC(C)C)NC(=O)[C@H](CCCNC(=N)N)NC(=O)[C@H](CC(N)=O)NC(=O)[C@H](CC(N)=O)NC(=O)[C@H](C)NC(=O)[C@H](C)NC(=O)[C@H](CCC(N)=O)NC(=O)[C@H](CCC(N)=O)NC(=O)[C@H](CCCCN)NC(=O)[C@H](CCC(=O)O)NC(=O)[C@H](CCCCN)NC(=O)[C@H](CCC(=O)O)NC(=O)[C@H](CCC(N)=O)NC(=O)[C@H](CCCCN)NC(=O)[C@H](CCC(=O)O)NC(=O)[C@@H](NC(=O)[C@H](CCC(=O)O)NC(=O)[C@@H](NC(=O)[C@H](CCSC)NC(=O)[C@H](CCCCN)NC(=O)[C@H](CCCNC(=N)N)NC(=O)[C@H](CC(C)C)NC(=O)[C@H](CC(C)C)NC(=O)[C@@H](N)Cc1ccc(O)cc1)[C@@H](C)CC)[C@@H](C)CC)[C@@H](C)O)C(N)=O [compound 20, [Tyr^12]Svg(12-40)] (H-YLLRKMIEIEKQEKEKQQAANNRLLLDTI-NH2; N-terminus assumed)
HEK-mCRFR2β cells rel. pot. (relative potency) (mCRFR2β [2]; Table 4, 10 nM antagonist, cAMP production stimulated by 1 nM Svg, Svg alone = 1.00): 0.80 ± 0.04 | Emax (mCRFR2β [2]; read-out: HEK-mCRFR2β cells rel. IA (relative intrinsic activity)): 0.6 ± 0.2% | HEK-rCRFR1 cells rel. pot. (relative potency) (rCRFR1 [1]; Table 4, 1 μM antagonist, cAMP production stimulated by 1 nM oCRF, oCRF alone = 1.00): 0.90 ± 0.02 | Emax (rCRFR1 [1]; read-out: HEK-rCRFR1 cells rel. IA (relative intrinsic activity)): 6 ± 3% | Kd (mCRFR2β [3]): 428 ± 119 nM | high-affinity binding to mCRFR2β (mCRFR2β [3]; N-terminal truncation by one amino acid and Glu^12 to tyrosine): completely abolished | Selectivity (mCRFR2β [3]; Table 3, Kd(rCRFR1)(peptide)/Kd(rCRFR1)(astressin) × Kd(mCRFR2β)(astressin)/Kd(mCRFR2β)(peptide)): 1.63 | Kd (rCRFR1 [4]): 995 ± 337 nM

α-helical CRF(9-41) (peptide)
% IA (intrinsic activity), cAMP production, HEK-rCRFR1 cells (relative, oCRF = 1.00) [5]: 0.16

B1: [Tyr^11, His^12]Svg(11-40) (peptide)
peptide: YHLLRKMIEIEKQEKEKQQAANNRLLLDTI
modifications: ends and bridges not checked
notes: also called compound 18
fold decrease of binding affinity against antisauvagine-30 (compound 11) [6]: 1.4 to 5.9 fold | rel. IA (relative intrinsic activity), cAMP production, HEK-rCRFR1 cells [7]: 0.03 relative, oCRF = 1.00 | rel. pot. (relative potency), inhibition of oCRF-stimulated cAMP production, HEK-rCRFR1 cells [7]: 0.79 relative, oCRF = 1.00 | Selectivity [8]: 31.6 | Kd [9]: 221 nM

B2: [Tyr^11]Svg(11-40) (peptide)
peptide: YELLRKMIEIEKQEKEKQQAANNRLLLDTI
modifications: ends and bridges not checked
notes: also called compound 19
fold decrease of binding affinity against [DPhe^11]Svg(11-40) (compound 12) [10]: 1.4 to 5.9 fold | rel. IA (relative intrinsic activity), cAMP production, HEK-rCRFR1 cells [7]: 0.09 relative, oCRF = 1.00 | rel. pot. (relative potency), inhibition of oCRF-stimulated cAMP production, HEK-rCRFR1 cells [7]: 0.82 relative, oCRF = 1.00 | Selectivity [8]: 33 | Kd [9]: 977 nM

B3: ovine corticotropin-releasing factor (oCRF) (peptide)
peptide: SQEPPISLDLTFHLLREVLEMTKADQLAQQAHSNRKLLDIA
modifications: ends and bridges not checked
notes: Synthetic peptide (Fmoc chemistry on TentaGel S RAM resin); also called compound 1
rel. IA (relative intrinsic activity), cAMP production, HEK-rCRFR1 cells [7]: 1 relative, oCRF = 1.00 | Selectivity [8]: 0.002 | % IA (intrinsic activity), cAMP production, HEK-rCRFR1 cells [11]: 1 relative, oCRF = 1.00 | EC50, cAMP accumulation in HEK-rCRFR1 cells [12]: 0.41 nM

B4: [^125I-Tyr^0]Svg (peptide)
peptide: YZGPPISIDLSLELLRKMIEIEKQEKEKQQAANNRLLLDTI
modifications: 125I-iodinated Tyr at position 0
specific binding [13]: 94%
